In the Human Domainome abundance scans (Beltran et al. 2025):
± gives the uncertainty stated by the source.

B1: LIM and senescent cell antigen-like-containing domain protein 2, residues 13 to 71; numbered along this chain, Q7Z4I7 (parent)
chain: AVCQRCQARFSPAERIVNSNGELYHEHCFVCAQCFRPFPEGLFYEFEGRKYCEHDFQML

Variants of: B1
Experiment: abundance fitness (aPCA) (normalised: wild type 0, dead -1); higher = more abundant; growth selection in yeast, the domain comes from the species named
Details: Homo sapiens

Variant	abundance fitness
AVCQRCQARFSPAERIVNSNGELYHEHCFVCAQCFRPFPEYLFYEFEGRKYCEHDFQML	-0.532 ± 0.07
AVCQRCQARFSPAERIVNSNGELYHEHCFVCAQCFRPFPECLFYEFEGRKYCEHDFQML	-0.205 ± 0.055
AVCQRCQARFSPAERIVNSNGELYHEHCFVCAQCFRPFPEFLFYEFEGRKYCEHDFQML	-0.481 ± 0.078
AVCQRCQARFSPAERIVNSNGELYHEHCFVCAQCFRPFPEPLFYEFEGRKYCEHDFQML	-0.518 ± 0.13
AVCQRCQARFSPAERIVNSNGELYHEHCFVCAQCFRPFPEALFYEFEGRKYCEHDFQML	-0.238 ± 0.066
AVCQRCQARFSPAERIVNSNGELYHEHCFVCAQCFRPFPETLFYEFEGRKYCEHDFQML	-0.268 ± 0.08
AVCQRCQARFSPAERIVNSNGELYHEHCFVCAQCFRPFPESLFYEFEGRKYCEHDFQML	-0.228 ± 0.054
AVCQRCQARFSPAERIVNSNGELYHEHCFVCAQCFRPFPEHLFYEFEGRKYCEHDFQML	-0.338 ± 0.079
AVCQRCQARFSPAERIVNSNGELYHEHCFVCAQCFRPFPEKLFYEFEGRKYCEHDFQML	-0.305 ± 0.17
AVCQRCQARFSPAERIVNSNGELYHEHCFVCAQCFRPFPENLFYEFEGRKYCEHDFQML	0.021 ± 0.073
AVCQRCQARFSPAERIVNSNGELYHEHCFVCAQCFRPFPEMLFYEFEGRKYCEHDFQML	-0.271 ± 0.15
AVCQRCQARFSPAERIVNSNGELYHEHCFVCAQCFRPFPELLFYEFEGRKYCEHDFQML	-0.394 ± 0.068
AVCQRCQARFSPAERIVNSNGELYHEHCFVCAQCFRPFPEILFYEFEGRKYCEHDFQML	-0.733 ± 0.13
AVCQRCQARFSPAERIVNSNGELYHEHCFVCAQCFRPFPERLFYEFEGRKYCEHDFQML	-0.084 ± 0.058
AVCQRCQARFSPAERIVNSNGELYHEHCFVCAQCFRPFPEELFYEFEGRKYCEHDFQML	-0.612 ± 0.28
AVCQRCQARFSPAERIVNSNGELYHEHCFVCAQCFRPFPEWLFYEFEGRKYCEHDFQML	-0.253 ± 0.28
AVCQRCQARFSPAERIVNSNGELYHEHCFVCAQCFRPFPEVLFYEFEGRKYCEHDFQML	-0.613 ± 0.075
AVCQRCQARFSPAERIVNSNGELYHEHCFVCAQCFRPFPEQLFYEFEGRKYCEHDFQML	0.096 ± 0.14
AVCQRCQARFSPAERIVNSNGELYHEHCFVCAQCFRPFPEGLFMEFEGRKYCEHDFQML	-0.114 ± 0.088
AVCQRCQARFSPAERIVNSNGELYHEHCFVCAQCFRPFPEGLFHEFEGRKYCEHDFQML	0.024 ± 0.14
AVCQRCQARFSPAERIVNSNGELYHEHCFVCAQCFRPFPEGLFQEFEGRKYCEHDFQML	-0.019 ± 0.093
AVCQRCQARFSPAERIVNSNGELYHEHCFVCAQCFRPFPEGLFNEFEGRKYCEHDFQML	0.088 ± 0.13
AVCQRCQARFSPAERIVNSNGELYHEHCFVCAQCFRPFPEGLFAEFEGRKYCEHDFQML	-0.404 ± 0.087

Variant	abundance fitness
AVCQRCQARFSPAERIVNSNGELYHEHCFVCAQCFRPFPEGLFCEFEGRKYCEHDFQML	-0.009 ± 0.14
AVCQRCQARFSPAERIVNSNGELYHEHCFVCAQCFRPFPEGLFIEFEGRKYCEHDFQML	-0.046 ± 0.11
AVCQRCQARFSPAERIVNSNGELYHEHCFVCAQCFRPFPEGLFPEFEGRKYCEHDFQML	-0.941 ± 0.17
AVCQRCQARFSPAERIVNSNGELYHEHCFVCAQCFRPFPEGLFKEFEGRKYCEHDFQML	-0.03 ± 0.096
AVCQRCQARFSPAERIVNSNGELYHEHCFVCAQCFRPFPEGLFFEFEGRKYCEHDFQML	0.002 ± 0.091
AVCQRCQARFSPAERIVNSNGELYHEHCFVCAQCFRPFPEGLFLEFEGRKYCEHDFQML	-0.247 ± 0.055
AVCQRCQARFSPAERIVNSNGELYHEHCFVCAQCFRPFPEGLFDEFEGRKYCEHDFQML	-0.259 ± 0.17
AVCQRCQARFSPAERIVNSNGELYHEHCFVCAQCFRPFPEGLFEEFEGRKYCEHDFQML	-0.086 ± 0.089
AVCQRCQARFSPAERIVNSNGELYHEHCFVCAQCFRPFPEGLFGEFEGRKYCEHDFQML	-0.324 ± 0.09
AVCQRCQARFSPAERIVNSNGELYHEHCFVCAQCFRPFPEGLCYEFEGRKYCEHDFQML	-0.223 ± 0.13
AVCQRCQARFSPAERIVNSNGELYHEHCFVCAQCFRPFPEGLIYEFEGRKYCEHDFQML	-0.263 ± 0.17
AVCQRCQARFSPAERIVNSNGELYHEHCFVCAQCFRPFPEGLKYEFEGRKYCEHDFQML	-0.365 ± 0.084
AVCQRCQARFSPAERIVNSNGELYHEHCFVCAQCFRPFPEGLMYEFEGRKYCEHDFQML	-0.206 ± 0.086
AVCQRCQARFSPAERIVNSNGELYHEHCFVCAQCFRPFPEGLSYEFEGRKYCEHDFQML	-0.103 ± 0.074
AVCQRCQARFSPAERIVNSNGELYHEHCFVCAQCFRPFPEGLEYEFEGRKYCEHDFQML	-0.522 ± 0.087
AVCQRCQARFSPAERIVNSNGELYHEHCFVCAQCFRPFPEGLHYEFEGRKYCEHDFQML	-0.204 ± 0.15
AVCQRCQARFSPAERIVNSNGELYHEHCFVCAQCFRPFPEGLNYEFEGRKYCEHDFQML	-0.387 ± 0.25
AVCQRCQARFSPAERIVNSNGELYHEHCFVCAQCFRPFPEGLPYEFEGRKYCEHDFQML	-0.042 ± 0.069
AVCQRCQARFSPAERIVNSNGELYHEHCFVCAQCFRPFPEGLDYEFEGRKYCEHDFQML	-0.69 ± 0.2
AVCQRCQARFSPAERIVNSNGELYHEHCFVCAQCFRPFPEGLQYEFEGRKYCEHDFQML	0.103 ± 0.084
AVCQRCQARFSPAERIVNSNGELYHEHCFVCAQCFRPFPEGLTYEFEGRKYCEHDFQML	-0.014 ± 0.065
AVCQRCQARFSPAERIVNSNGELYHEHCFVCAQCFRPFPEGLRYEFEGRKYCEHDFQML	-0.37 ± 0.07
AVCQRCQARFSPAERIVNSNGELYHEHCFVCAQCFRPFPEGLVYEFEGRKYCEHDFQML	-0.132 ± 0.06

Variant	abundance fitness
AVCQRCQARFSPAERIVNSNGELYHEHCFVCAQCFRPFPEGLAYEFEGRKYCEHDFQML	-0.143 ± 0.064
AVCQRCQARFSPAERIVNSNGELYHEHCFVCAQCFRPFPEGLYYEFEGRKYCEHDFQML	0.059 ± 0.23
AVCQRCQARFSPAERIVNSNGELYHEHCFVCAQCFRPFPEGLLYEFEGRKYCEHDFQML	-0.161 ± 0.059
AVCQRCQARFSPAERIVNSNGELYHEHCFVCAQCFRPFPDGLFYEFEGRKYCEHDFQML	-0.018 ± 0.1
AVCQRCQARFSPAERIVNSNGELYHEHCFVCAQCFRPFPVGLFYEFEGRKYCEHDFQML	-0.266 ± 0.052
AVCQRCQARFSPAERIVNSNGELYHEHCFVCAQCFRPFPKGLFYEFEGRKYCEHDFQML	-0.039 ± 0.057
AVCQRCQARFSPAERIVNSNGELYHEHCFVCAQCFRPFPLGLFYEFEGRKYCEHDFQML	-0.068 ± 0.041
AVCQRCQARFSPAERIVNSNGELYHEHCFVCAQCFRPFPAGLFYEFEGRKYCEHDFQML	-0.098 ± 0.054
AVCQRCQARFSPAERIVNSNGELYHEHCFVCAQCFRPFPQGLFYEFEGRKYCEHDFQML	-0.105 ± 0.06
AVCQRCQARFSPAERIVNSNGELYHEHCFVCAQCFRPFPIGLFYEFEGRKYCEHDFQML	-0.752 ± 0.15
AVCQRCQARFSPAERIVNSNGELYHEHCFVCAQCFRPFPTGLFYEFEGRKYCEHDFQML	-0.15 ± 0.055
AVCQRCQARFSPAERIVNSNGELYHEHCFVCAQCFRPFPHGLFYEFEGRKYCEHDFQML	0.023 ± 0.095
AVCQRCQARFSPAERIVNSNGELYHEHCFVCAQCFRPFPYGLFYEFEGRKYCEHDFQML	-0.212 ± 0.079
AVCQRCQARFSPAERIVNSNGELYHEHCFVCAQCFRPFPGGLFYEFEGRKYCEHDFQML	-0.158 ± 0.054
AVCQRCQARFSPAERIVNSNGELYHEHCFVCAQCFRPFPWGLFYEFEGRKYCEHDFQML	-0.31 ± 0.064
AVCQRCQARFSPAERIVNSNGELYHEHCFVCAQCFRPFPNGLFYEFEGRKYCEHDFQML	-0.236 ± 0.11
AVCQRCQARFSPAERIVNSNGELYHEHCFVCAQCFRPFPEGHFYEFEGRKYCEHDFQML	-0.198 ± 0.17
AVCQRCQARFSPAERIVNSNGELYHEHCFVCAQCFRPFPEGKFYEFEGRKYCEHDFQML	0.047 ± 0.096
AVCQRCQARFSPAERIVNSNGELYHEHCFVCAQCFRPFPEGEFYEFEGRKYCEHDFQML	0.083 ± 0.1
AVCQRCQARFSPAERIVNSNGELYHEHCFVCAQCFRPFPEGAFYEFEGRKYCEHDFQML	0.02 ± 0.087
AVCQRCQARFSPAERIVNSNGELYHEHCFVCAQCFRPFPEGWFYEFEGRKYCEHDFQML	-0.302 ± 0.1
AVCQRCQARFSPAERIVNSNGELYHEHCFVCAQCFRPFPEGVFYEFEGRKYCEHDFQML	-0.026 ± 0.075
AVCQRCQARFSPAERIVNSNGELYHEHCFVCAQCFRPFPEGRFYEFEGRKYCEHDFQML	0.006 ± 0.057

Variant	abundance fitness
AVCQRCQARFSPAERIVNSNGELYHEHCFVCAQCFRPFPEGTFYEFEGRKYCEHDFQML	0.07 ± 0.083
AVCQRCQARFSPAERIVNSNGELYHEHCFVCAQCFRPFPEGPFYEFEGRKYCEHDFQML	-0.357 ± 0.11
AVCQRCQARFSPAERIVNSNGELYHEHCFVCAQCFRPFPEGMFYEFEGRKYCEHDFQML	0.045 ± 0.087
AVCQRCQARFSPAERIVNSNGELYHEHCFVCAQCFRPFPEGGFYEFEGRKYCEHDFQML	-0.108 ± 0.066
AVCQRCQARFSPAERIVNSNGELYHEHCFVCAQCFRPFPEGFFYEFEGRKYCEHDFQML	-0.301 ± 0.13
AVCQRCQARFSPAERIVNSNGELYHEHCFVCAQCFRPFPEGIFYEFEGRKYCEHDFQML	0.112 ± 0.11
AVCQRCQARFSPAERIVNSNGELYHEHCFVCAQCFRPFPEGCFYEFEGRKYCEHDFQML	-0.062 ± 0.088
AVCQRCQARFSPAERIVNSNGELYHEHCFVCAQCFRPFPEGNFYEFEGRKYCEHDFQML	-0.012 ± 0.11
AVCQRCQARFSPAERIVNSNGELYHEHCFVCAQCFRPFPEGDFYEFEGRKYCEHDFQML	-0.023 ± 0.11
AVCQRCQARFSPAERIVNSNGELYHEHCFVCAQCFRPFPEGQFYEFEGRKYCEHDFQML	-0.092 ± 0.11
AVCQRCQARFSPAERIVNSNGELYHEHCFVCAQCFRPFPEGSFYEFEGRKYCEHDFQML	-0.064 ± 0.07
AVCQRCQARFSPAERIVNSNGELYHEHCFVCAQCFRPFSEGLFYEFEGRKYCEHDFQML	-0.124 ± 0.049
AVCQRCQARFSPAERIVNSNGELYHEHCFVCAQCFRPFWEGLFYEFEGRKYCEHDFQML	-0.206 ± 0.053
AVCQRCQARFSPAERIVNSNGELYHEHCFVCAQCFRPFREGLFYEFEGRKYCEHDFQML	-0.107 ± 0.041
AVCQRCQARFSPAERIVNSNGELYHEHCFVCAQCFRPFQEGLFYEFEGRKYCEHDFQML	-0.058 ± 0.068
AVCQRCQARFSPAERIVNSNGELYHEHCFVCAQCFRPFKEGLFYEFEGRKYCEHDFQML	-0.064 ± 0.064
AVCQRCQARFSPAERIVNSNGELYHEHCFVCAQCFRPFYEGLFYEFEGRKYCEHDFQML	-0.396 ± 0.11
AVCQRCQARFSPAERIVNSNGELYHEHCFVCAQCFRPFTEGLFYEFEGRKYCEHDFQML	-0.091 ± 0.056
AVCQRCQARFSPAERIVNSNGELYHEHCFVCAQCFRPFLEGLFYEFEGRKYCEHDFQML	-0.211 ± 0.047
AVCQRCQARFSPAERIVNSNGELYHEHCFVCAQCFRPFMEGLFYEFEGRKYCEHDFQML	-0.143 ± 0.075
AVCQRCQARFSPAERIVNSNGELYHEHCFVCAQCFRPFVEGLFYEFEGRKYCEHDFQML	-0.017 ± 0.056
